Reference: patent publication US20130177924A1

What was measured:
[1] = target: blocked scFv having an HRV-3C protease substrate in the peptide linker (H6-MG VH / HL1-TO1 VL), pept; test: cell-based or functional assay
[2] = target: blocked scFv having a caspase 3 protease substrate in the peptide linker (H6-MG VH / HL1-TO1 VL), peptide construct SEQ ID NO:51, displayed on yeast; test: cell-based or functional assay

Substance: Human Rhinovirus 3C protease (enzyme)
- time to complete activation of MG fluorescence, 10^6 yeast cells with 1 unit of HRV-3C protease at 25 C [1]: 30 min

Substance: caspase 3 protease (enzyme)
- time to complete activation of MG fluorescence, 10^6 yeast cells with 1 unit of caspase 3 protease at 25 C [2]: 30 min
